From patent publication US20210087268A1

Biological target: T1, TIGIT expressed on cells (TIGIT-expressing effector cell line of the Promega kit; TIGIT-overexpressing NK92 cell line) (UniProt Q495A1)
T1 sequence (looked up): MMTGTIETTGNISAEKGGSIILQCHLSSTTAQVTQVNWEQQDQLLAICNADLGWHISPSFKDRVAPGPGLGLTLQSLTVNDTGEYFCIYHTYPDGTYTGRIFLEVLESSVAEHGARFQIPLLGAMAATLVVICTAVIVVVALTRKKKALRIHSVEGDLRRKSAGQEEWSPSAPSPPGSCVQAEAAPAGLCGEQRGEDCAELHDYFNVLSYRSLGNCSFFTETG
Assay: cell-based or functional assay

10A7 antibody, sequence (VH): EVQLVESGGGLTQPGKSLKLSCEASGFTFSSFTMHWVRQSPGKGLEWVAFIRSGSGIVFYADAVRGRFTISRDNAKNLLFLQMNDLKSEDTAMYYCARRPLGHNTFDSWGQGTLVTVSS
10A7 antibody, sequence (VL): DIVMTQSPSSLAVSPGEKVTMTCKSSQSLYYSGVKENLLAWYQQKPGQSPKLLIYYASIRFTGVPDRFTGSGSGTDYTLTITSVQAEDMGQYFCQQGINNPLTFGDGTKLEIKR

10A7 antibody
binding inhibition (EC50), TIGIT/CD155 blockade assay, luminescence fold response: 0.752 µM
